Molecular target: CXCR4 receptor on J-Lat8.4, Jurkat E6 and U1 cells (human) (UniProt P61073)
Test: cell-based or functional assay

cyclic peptide cyclo (D-Tyr-Orn-Arg-Nal-Gly-) (CycPep), conjugated to DSPE-PEG and displayed on CXCR4 targeted lipid nanoparticles (T-LNP)
viral DNA excision (excised band intensity on gel), J-Lat8.4 and Jurkat E6 against U1: 4 fold
viral excision: < 60%
